Publication PMC8319299 (2020)
Where no end group is shown, it is not given here. [ ]: non-standard residue; d: D form. Lys(Me3) = C[N+](C)(C)CCCC[C@H](N)C(=O)O

Target: EED (amino acids 40-441) (human, UniProt O75530-1 40-441)
Test: FP

EED (amino acids 40-441), sequence (O75530 40-441): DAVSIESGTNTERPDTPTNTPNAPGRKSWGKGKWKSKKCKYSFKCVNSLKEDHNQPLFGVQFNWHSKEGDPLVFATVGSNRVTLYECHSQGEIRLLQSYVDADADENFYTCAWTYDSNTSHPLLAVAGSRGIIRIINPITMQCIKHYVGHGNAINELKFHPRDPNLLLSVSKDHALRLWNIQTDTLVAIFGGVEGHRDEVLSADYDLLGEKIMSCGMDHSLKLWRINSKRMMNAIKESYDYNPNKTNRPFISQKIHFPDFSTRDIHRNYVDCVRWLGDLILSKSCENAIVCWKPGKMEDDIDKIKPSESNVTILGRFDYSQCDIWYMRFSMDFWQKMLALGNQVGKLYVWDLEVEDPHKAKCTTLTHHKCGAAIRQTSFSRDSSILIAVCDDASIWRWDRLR

LK[Lys(Me3)]APG [PALI1-K1241me3 peptide with the F1242A mutation] gave a Kd of 223 µM.
